Two molecules from paper PMC3064986 (Biochemical and biophysical research communications, 2011) can be followed below.

The chains are these.
B1: yeast antizyme (Saccharomyces cerevisiae), N-terminal 6XHis-tagged, full length (natural protein, UniProt Q02803 1-292, looked up)
chain: MYEVIQKRKTKIINVLQSPELMRLIEDPSNLGISLHFPVSSLLKSNKCTPMPKLSTYSLASGGFKDWCADIPLDVPPEIDIIDFYWDVILCMESQFILDYNVPSKNKGNNQKSVAKLLKNKLVNDMKTTLKRLIYNENTKQYKNNNSHDGYNWRKLGSQYFILYLPLFTQELIWCKLNENYFHVVLPSLLNSRNVHDNHSTYINKDWLLALLELTSNLNQNFKFEYMKLRLYILRDDLINNGLDLLKNLNWVGGKLIKNEDREVLLNSTDLATDSISHLLGDENFVILEFEC
B2: yeast ornithine decarboxylase (Saccharomyces cerevisiae SPE1) (enzyme, UniProt P08432 1-466, looked up)
chain: MSSTQVGNALSSSTTTLVDLSNSTVTQKKQYYKDGETLHNLLLELKNNQDLELLPHEQAHPKIFQALKARIGRINNETCDPGEENSFFICDLGEVKRLFNNWVKELPRIKPFYAVKCNPDTKVLSLLAELGVNFDCASKVEIDRVLSMNISPDRIVYANPCKVASFIRYAASKNVMKSTFDNVEELHKIKKFHPESQLLLRIATDDSTAQCRLSTKYGCEMENVDVLLKAIKELGLNLAGVSFHVGSGASDFTSLYKAVRDARTVFDKAANEYGLPPLKILDVGGGFQFESFKESTAVLRLALEEFFPVGCGVDIIAEPGRYFVATAFTLASHVIAKRKLSENEAMIYTNDGVYGNMNCILFDHQEPHPRTLYHNLEFHYDDFESTTAVLDSINKTRSEYPYKVSIWGPTCDGLDCIAKEYYMKHDVIVGDWFYFPALGAYTSSAATQFNGFEQTADIVYIDSELD

The target in experiment [1] is B2. In words: SPR.
Experiment [2] addresses B1. Briefly: SEC-MALS.

As to B1, in experiment [1], the equilibrium dissociation constant (Kd) stood at 17.3 nM and the on-rate (kon) came out at 31400 M⁻¹ s⁻¹.
Regarding B2, the “stoichiometry N” value in experiment [2] worked out at 1 ODC per AZ.
